Experimental data from US9303249B2, “High concentration α-glucosidase compositions for the treatment of Pompe disease” (Amicus Therapeutics, Inc., priority 2012, dated 2016).

Experiment: Solubility of Lumizyme® in the presence of 1-DNJ-HCl and excipients (Example 12)
Type: physicochemical
Experimental: A vial of Lumizyme® containing 52.5 mg protein, 210 mg mannitol, 0.5 mg polysorbate 80, 9.9 mg Na2HPO4×7H2O, and 31.2 mg NaH2PO4×H2O was dissolved in a minimal volume of water (1 mL added) yielding 1.2 mL of protein solution. Five 240-μL aliquots (each containing 10.5 mg protein) were transferred to Amicon Ultra 0.5 mL 30 kDa cutoff centrifugal filter devices and centrifuged for 10 min at 14,000×g in an Eppendorf centrifuge to obtain about 50 μL of retentate.
The original excipients present in the composition, i.e., mannitol and polysorbate 80 were exchanged for new excipients to test protein solubility (keeping the same buffer conditions). The following excipient solutions were prepared for the exchange using the original phosphate buffer:
For exchanging excipients, 5.2 mg Na2HPO4 and 27.1 mg NaH2PO4 were dissolved in 10.3 mL water to prepare the washing/excipient exchange phosphate buffer of approximately 26 mM. A volume of 8 mL of the buffer for excipient exchange was supplemented with 160 mg/mL of the small molecule ligand (to prepare excipient 1, 3, 4 and 5 solutions), while 2 mL was supplemented with 32 mg/mL ligand for excipient 2 (100 mM Arginine). Each of the excipients were dissolved in 2 mL of this buffer at the concentrations listed above.
An excipient solution was added to each separate filter device to achieve a total volume of 0.5 mL. Each filter device was centrifuged for 15 min at 14,000×g in a bench top Eppendorf centrifuge to retain approximately 25 μL. The units were re-filled with the same excipient solution to 0.5 mL and centrifuged again (this process was repeated 2 times). This procedure efficiently replaced mannitol and polysorbate 80 with excipients described above, diluting the original constituents by about 1:1000. All filtrates for each excipient were collected and examined for any protein leaks through the filter.
Each centrifugal filter device was inverted in a clean tube, and the concentrated protein solution was collected from each filter device by centrifugation for 2 min at 1000×g. The volume of each sample was determined (66 μL, corresponding to a target protein concentration of 160 mg/mL), and it was confirmed that no visible precipitate was observable in each sample. Samples were transferred back to their respective filter devices and centrifuged for an additional 5 min Samples were then collected by inversion of the filters into clean tubes and centrifuging for 2 min at 1000×g to yield about 37 μL of retentate (corresponding to >280 mg/mL protein based on a total initial concentration of 10.5 mg protein).
The samples were vortexed and incubated for 1 hr at room temperature to equilibrate liquid and solid phases followed by centrifugation for 10 min at 14,000×g. Again, no visible precipitate was observed. Two-three 10 μL aliquots were taken from the supernatant of each sample (depending on available volume of the liquid phase), and diluted 1:1000 in two steps. Protein concentration was measured by UV absorbance at 280 nm, and the maximum protein solubility was calculated according to a highly reproducible calibration curve. The calibration curve was prepared by dissolving 6.8 mg of Myozyme® (alglucosidase alpha) lyophilized powder (containing 1.16 mg protein) in 1.16 mL of water followed by a serial dilution in deionized water. Absorbance was measured at 280 nm in a 1 cm light-pass quartz semi-micro cuvette using 0.5 mL aliquots.

## Lumizyme®: alglucosidase alfa, recombinant human acid α-glucosidase from Genzyme Corporation
Arginine 100 mM, 1-DNJ-HCl 32 mg/mL
  Protein solubility: 201 mg/mL
Arginine + Glutamic acid 50 mM + 50 mM, 1-DNJ-HCl 160 mg/mL
  Protein solubility: 242 mg/mL
Gamma-cyclodextrin 10% (w/v), 1-DNJ-HCl 160 mg/mL
  Protein solubility: 114 mg/mL
PEG400 5% (w/v), 1-DNJ-HCl 160 mg/mL
  Protein solubility: 158 mg/mL
Proline 250 mM, 1-DNJ-HCl 160 mg/mL
  Protein solubility: 195 mg/mL
